Data: patent US11142588B2, “Polypeptides which bind C-X-C chemokine receptor type 4 (CXCR4) and methods of treating or reducing the risk of fibrosis and cancer” (AdAlta Limited, priority 2015, dated 2021)
Several values for one entry are separate records, joined by “and”; a condition that tells them apart may be missing. Identical values can stand only once.

Key:
[1] = Bleomycin mouse model of pulmonary fibrosis; format: in vivo
Description: The optimal dose of Bleomycin is 2 U/mouse and the optimal time for assessing fibrocyte recruitment was confirmed at day 4. At days 4 bronchoalvelolar lavage (BAL) fluids were collected for analysis of SDF-1 concentration. One half of the lung tissue was used to make single cell suspensions of the lung and the cells used for flow cytometry and assayed for CD45+, CXCR4+ and Collagen1+ (fibrocytes). The other half of the lung tissue was Sircol stained for the presence of collagen 1 and RNA will be tested for Col-1, Col-3 and SDF-1.
SDF-1, fibrocytes and collagen deposition were monitored at Day 4. Groups were dosed with the i-body just prior to administration with Bleomycin. One half of the lung tissue was minced and washed in PBS and used to make single cell suspensions of the lung with Collagenase A and dispase treatment. The cells were then used for flow cytometry and assayed for CD45+, CXCR4+ and Collagen1+ fibrocytes. […]

[2] = biological target: T1, human CXCR4 (CXCR4 positive lipoparticles) (Homo sapiens, UniProt P61073); test: Biacore SPR kinetic binding to immobilised CXCR4 lipoparticles
T1 construct: purchased Integral Molecular LEV-101B
T1 sequence (P61073 whole entry): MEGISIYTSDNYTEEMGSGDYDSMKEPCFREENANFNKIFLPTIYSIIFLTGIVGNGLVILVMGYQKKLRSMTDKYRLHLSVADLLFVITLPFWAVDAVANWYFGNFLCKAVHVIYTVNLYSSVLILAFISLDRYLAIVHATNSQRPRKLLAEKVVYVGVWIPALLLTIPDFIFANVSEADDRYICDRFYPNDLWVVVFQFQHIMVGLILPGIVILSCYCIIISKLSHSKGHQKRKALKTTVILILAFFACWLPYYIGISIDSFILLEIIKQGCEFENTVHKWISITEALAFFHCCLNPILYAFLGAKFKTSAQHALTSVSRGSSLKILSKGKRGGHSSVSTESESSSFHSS
Procedure: (FIGS. 2A-2C, 5A-5C, 11A-11D, 17A-17B) Kinetic binding analysis of selected i-bodies with immobilized CXCR4 lipoparticles were performed at 25° C. using Biacore T200 instrument (GE Healthcare, Uppsala, Sweden). Streptavidin immobilization was performed in 1×HBS-P+ running buffer (10 mM HEPES, 150 mM NaCl, 0.05% [v/v] Tween-20). […] All binding experiments involving lipoparticles were performed with 1×HBS/BSA (10 mM HEPES, 150 mM NaCl, 1 mg/mL BSA) as instrument running buffer. […] In order to determine binding kinetics, serial dilutions (three-fold) of i-bodies diluted in 1×HBS/BSA were injected over immobilized lipoparticles with the association and dissociation phases monitored for 60 sec and 600 sec, respectively. A control measurement of the instrument running buffer (“zero-buffer” blank) solution was also included for double referencing purposes. Collected experimental data were processed using Scrubber software (www.biologic.com.au). Kinetic parameters (ka=association and kd=dissociation rate constants) and equilibrium dissociation constant (KD=kd/ka) were derived by fitting each set of experimental data to a Langmuir 1:1 binding model. All interaction measurements were performed in triplicate and the derived binding parameters reported as averaged values±standard deviation.

[3] = off-rate, CXCR4 expressed on lipoparticles (Table 3)
[4] = CXCR4 expressed on lipoparticles (Table 4)

Row | Molecule | dissociation rate constant (kd) [2, 3] | also measured
1 | Cc1ccc(=O)n(-c2ccccc2)c1 [Pirfenidone, reference compound] |  | recruitment of fibrocytes into the lungs ([1]; day 4, dose not given): able to block recruitment of fibrocytes; collagen content of the lung (Sircol) ([1]; positive controls, dose not stated): reduction in collagen
2 | AM3-466: affinity matured CXCR4 i-body, SEQ ID NO: 64 (protein, protein sequence encoding AM3-466) LQVDIVPSQGEISVGESKFFLCQVAGSGSHQRISWFSPNGEKLTPNQQRISVVWNDDSSSTLTIYNANIDDAGIYKCVVWRTGAYRHRALVLGEATVNVKIFQ | 0.00784 | Ka [2, 4]: 465000 M⁻¹ s⁻¹ and 426000 M⁻¹ s⁻¹
3 | AM3-182: affinity matured i-body, CDR1 SEQ ID NO: 99, CDR3 SEQ ID NO: 100 (protein) LQVDIVPSQGEISVGESKFFLCQVAGVGNHIRISWFSPNGEKLTPNQQRISVVWNDDSSSTLTIYNANIDDAGIYKCVVWRAGGYRHRALVLGEATVNVKIFQ | 0.01562 | 
4 | AM4-239: affinity matured i-body, CDR1 SEQ ID NO: 89, CDR3 SEQ ID NO: 90 (protein) LQVDIVPSQGEISVGESKFFLCQVAGAYSDIRISWFSPNGEKLTPNQQRISVVWNDDSSSTLTIYNANIDDAGIYKCVVYRTGGYRHRYLVLGEATVNVKIFQ | 0.01356 | 
5 | AM4-208: affinity matured i-body, CDR1 SEQ ID NO: 85, CDR3 SEQ ID NO: 86 (protein) LQVDIVPSQGEISVGESKFFLCQVAGSKSEIRISWFSPNGEKLTPNQQRISVVWNDDSSSTLTIYNANIDDAGIYKCVVYRTGGYRHRYLVLGEATVNVKIFQ | 0.01283 | 
6 | AM4-774: affinity matured i-body, CDR1 SEQ ID NO: 83, CDR3 SEQ ID NO: 84 (protein) LQVDIVPSQGEISVGESKFFLCQVAGSKSVIRISWFSPNGEKLTPNQQRISVVWNDDSSSTLTIYNANIDDAGIYKCVVYRTGGYRHRYLVLGEATVNVKIFQ | 0.0105 | 
7 | AM4-613: affinity matured CXCR4 i-body, SEQ ID NO: 52 (protein, protein sequence encoding AM4-613) LQVDIVPSQGEISVGESKFFLCQVAGSKSDVRISWFSPNGEKLTPNQQRISVVWNDDSSSTLTIYNANIDDAGIYKCVVWRTGGYRHRYLVLGEATVNVKIFQ | 0.01236 | Ka [2, 4]: 1.334e+06 M⁻¹ s⁻¹; dissociation rate constant (kd) [2, 4]: 10440 M⁻¹ s⁻¹
8 | AM4-661: affinity matured CXCR4 i-body, SEQ ID NO: 60 (protein, protein sequence encoding AM4-661) LQVDIVPSQGEISVGESKFFLCQVAGSKSDFRISWFSPNGEKLTPNQQRISVVWNDDSSSTLTIYNANIDDAGIYKCVVYRTGGYRHRYLVLGEATVNVKIFQ | 0.00955 | Ka [2, 4]: 966000 M⁻¹ s⁻¹ and 983000 M⁻¹ s⁻¹; dissociation rate constant (kd) [2, 4]: 9210 M⁻¹ s⁻¹ and 9500 M⁻¹ s⁻¹
9 | AM4-352: affinity matured i-body, CDR1 SEQ ID NO: 97, CDR3 SEQ ID NO: 98 (protein) LQVDIVPSQGEISVGESKFFLCQVAGSKDDIRISWFSPNGEKLTPNQQRISVVWNDDSSSTLTIYNANIDDAGIYKCVVYRTGGYRHRYLVLGEATVNVKIFQ | 0.0152 | 

Further lines, with some results ahead:

Row | dissociation rate constant (kd) [2, 3] | Molecule | also measured
10 | 0.015 | AM4-386: affinity matured i-body, CDR1 SEQ ID NO: 95, CDR3 SEQ ID NO: 96 (protein) LQVDIVPSQGEISVGESKFFLCQVAGITSEGHISWFSPNGEKLTPNQQRISVVWNDDSSSTLTIYNANIDDAGIYKCVVETTVFNEVMRLGNGAHVYEATVNVKIFQ | 
11 | 0.01488 | AM4-757: affinity matured i-body, CDR1 SEQ ID NO: 93, CDR3 SEQ ID NO: 94 (protein) LQVDIVPSQGEISVGESKFFLCQVAGSKSAIRISWFSPNGEKLTPNQQRISVVWNDDSSSTLTIYNANIDDAGIYKCVVYRTGSYRHRYLVLGEATVNVKIFQ | 
12 | 0.01621 | AM4-203: affinity matured i-body, CDR1 SEQ ID NO: 101, CDR3 SEQ ID NO: 102 (protein) LQVDIVPSQGEISVGESKFFLCQVAGSYGDIRISWFSPNGEKLTPNQQRISVVWNDDSSSTLTIYNANIDDAGIYKCVVYRTGGWRHRYLVLGEATVNVKIFQ | 
13 | 0.0136 | AM3-32: affinity matured i-body, CDR1 SEQ ID NO: 91, CDR3 SEQ ID NO: 92 (protein) LQVDIVPSQGEISVGESKFFLCQVAGSGSGITISWFSPNGEKLTPNQQRISVVWNDDSSSTLTIYNANIDDAGIYKCVVWRTGVYRHRALVLGEATVNVKIFQ | 
